Test results published in EP4786492A1 (Simcere Zaiming Pharmaceutical Co., Ltd., dated 2026).
Blank lines part the entries; values can stand above or below the binder they belong to.

Columns and labels:
[1] = target: T1, human DLL3-his protein (human, UniProt Q9NYJ7 27-492); assay: ELISA
T1 construct: also called human DLL3 protein; DLL3 antigen protein; not shown: His tag
T1 sequence: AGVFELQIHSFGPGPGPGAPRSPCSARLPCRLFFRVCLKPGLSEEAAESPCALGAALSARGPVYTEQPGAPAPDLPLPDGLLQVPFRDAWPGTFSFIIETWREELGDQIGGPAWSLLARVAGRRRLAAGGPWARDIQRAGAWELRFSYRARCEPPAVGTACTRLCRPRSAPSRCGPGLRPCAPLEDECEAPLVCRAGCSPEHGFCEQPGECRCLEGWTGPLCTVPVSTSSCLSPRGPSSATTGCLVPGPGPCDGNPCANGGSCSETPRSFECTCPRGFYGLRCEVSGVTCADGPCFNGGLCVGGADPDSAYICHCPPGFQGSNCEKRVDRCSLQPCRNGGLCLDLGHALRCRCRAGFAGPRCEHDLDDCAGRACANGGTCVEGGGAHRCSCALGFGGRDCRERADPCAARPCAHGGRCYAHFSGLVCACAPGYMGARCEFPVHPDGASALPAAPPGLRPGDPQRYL

[2] = target: T2, monkey DLL3 on CHO K1-cyno DLL3 cells (cynomolgus monkey); assay: FACS, CHO K1-cyno DLL3 cells
T2 construct: also called monkey DLL3 recombinant cell line
T2 chain: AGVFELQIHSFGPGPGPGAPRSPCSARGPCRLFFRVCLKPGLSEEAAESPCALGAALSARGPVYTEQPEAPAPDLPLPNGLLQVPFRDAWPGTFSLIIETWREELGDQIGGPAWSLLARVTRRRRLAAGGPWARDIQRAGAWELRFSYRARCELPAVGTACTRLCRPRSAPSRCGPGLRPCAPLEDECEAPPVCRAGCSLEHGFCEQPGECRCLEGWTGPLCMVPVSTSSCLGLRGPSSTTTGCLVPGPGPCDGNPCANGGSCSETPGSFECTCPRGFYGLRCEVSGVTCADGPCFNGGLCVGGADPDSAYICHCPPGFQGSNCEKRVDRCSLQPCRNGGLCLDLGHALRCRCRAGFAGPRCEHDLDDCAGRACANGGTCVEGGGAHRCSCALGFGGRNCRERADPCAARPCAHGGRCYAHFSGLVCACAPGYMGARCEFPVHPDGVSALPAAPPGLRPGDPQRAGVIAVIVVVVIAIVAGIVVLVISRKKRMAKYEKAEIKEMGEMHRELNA

binding result [1]: binds
binding result [2]: binds
B1: mab010 scFv-hFc (Fc fusion)
scFv (part 1 of 2): DIQMTQSPASLSVSVGETVTITCRASENINSNLAWYQQKQGKSPQLLVYAATNLADGVPSRFSGSGSGTQFSLKISGLQSEDFGSYYCQHFWGLPWTFGGGTKLEIR
scFv (part 2 of 2): QVQLQQSGAELARPGASMKLSCKASGYTFTSYGISWVKQITGQGLEWIGEIFPRSGNTYDNENFRGKATLTADKSSSTAYLEVRSLTSEDSAVYFCARTTVFAPYYFDYWGQGTTLTVSS
notes: human-murine chimeric scFv-hFc, VL-linker-VH-human IgG1 Fc; not shown: linker; Fc fragment of human IgG1

binding result [1]: binds
B2: mab009 scFv-hFc (Fc fusion)
scFv (part 1 of 2): DIVMTQSPATLSVTPGDRVSLSCRASQTISDYLHWYQQRSHESPRLLIKYASQSISGIPSRFSGSGSGSDFTLSINSVEPEDVGVYYCQNGHSFPLTFGAGTKLELK
scFv (part 2 of 2): EVQLQQSGTVLARPGASVKMSCKTSGYTFTSYWMHWVKQSPGQGLEWIGTIYPGNSDTRYNQKFKDKAYVTAVTSASTAYMELSSLTNEESAVYYCTRSYDYGDLDYWGQGTTLTVSS
notes: as for B1

binding result [1]: binds
binding result [2]: binds
B3: mab015 scFv-hFc (Fc fusion)
scFv (part 1 of 2): NIVMTQSPKSMSMSVGERVTLSCKASENVGTYVSWFQQKPEQSPKLLIYGASNRYTGVPDRFTGSGSATDFTLTISSVQAEDLADYHCGQFYSFPCTFGGGTKLEIK
scFv (part 2 of 2): EVKLEESGGGLVQPGGSMKLSCVASGITFSNFWMNWVRQSPEKGLEWVAQIRLKSDDYATHYAESVKGRFTISRDDSKGSVYLQMNNLRTEDTGIHYCTTGYYFDYWGQGTTLTVSS
notes: as for B1
